Source: the DeepSol protein solubility set

Assay: soluble on expression in E. coli; label from the status in PepcDB or PDB records

Sequence | soluble on expression in E. coli
MVAPSFPLFNLPQKNLKDVFCNMSVIQQTCISLISEKTRNLVREFHIFKQLQVCLDFIFLPDYHFYLKGSAKFIFIPHNRKFIARSSSGEHSNYSVPQFDAKSWLKHLIYIFNVTEIHSLRSRFFDWDLREPRLKMPKECLKNLKILNLSIGFTNKISLVVELYSAFQHIKKFSLRQYSHKPLDSTLLLELRHLLSKTNQQLCLNINLPLNELLLTSCSSIDIHRTQLTDKDINVFLKHWFAGLKPELEHFRVRKDGPAFNQKTILKGIPHEFASIGRKFKLFEMDSQVGGIDIDLGQDIKATLVFNHKPGIADFSVAVHNSKYFFC | not soluble
MSKRTTPTYPVEVIRSDRRTRTVSARLVGGKILIRIPASMSKKDEKKFVAEMVDKVRTKTQSSAPTDEALLHRAQHLNRTVLENRATIGSIRWVTNQTRRWGSCSQTTNDIRISHRLQGVPDYVLDAVIIHEMVHTFIEGGHSPEFWQWADKAPKAERAKGYLEAWQRMGDVGLEHHHHHH | not soluble
MAADGTYDELERGEKSKLRDDVVDIQKKPFSILFMGVEDYSTNGEHGRTDSLIVVTLDPKKKSMKMLSIPRDTRVHLASDTTGTKTKINAAYAKGGKDETIETVEDFLGIPIDYYATVDFDGFKDVIDEIGGIDVDVPFDFSEKSDVSKSKRIYFKKGNMHLNGEEALAYARMRKQDKRGDFGRNDRQKQILKAALDQISKPQNLAKIDTIAQKASKNIQTNFRITQALALQQIYSGFAGDDIKTLNITGQDLTIANVYYFEPDQQNLENVQNELTHHLYPLEHHHHHH | soluble
AESLPDLKIEKLDEGVYVHTSFEEVNGWGVVPKHGLVVLVNAEAYLIDTPFTAKDTEKLVTWFVERGYKIKGSISSHFHSASTGGIEWLNSRSIPTYASELTNELLKKDGKVQATNSFSGVNYWLVKNKIEVFYPGPGHTPDNVVVWLPERKILFGGCFIKPYGLGNLGDANIEAWPKSAKLLKSKYGKAKLVVPSHSEVGDASLLKLTLEQAVKGLNESKKPSKPSN | soluble
MGSDKIHHHHHHATSFTDSLDLTQYRNDVKTLASDAFGGRAPLSEGEQLTLDYLEKAFKEMGLKPAFGDSYLQAVPLAKISADQNMQLDIGGLKLANGSEFTARTQRIAEKVSLKNSDVVFVGYGINAPEYGWNDYQGLDVKGKTVIVLVNDPGFATQDPNVFKGNAMTYYGRWTYKYEEAARQGAEAVFIVHETAPAAYGWGVVQNSNTGTKFALVDTNNNQGQVGVMGWVQYEVAQNIFAKAGMNFDNLKQQAAKPNFKALPLKLRATLTLNNTIERAESHNVAALLPGKTRPDEVVMMHAHWDHLGTIIENGKPEILNGAVDNASGVAGVLALARYFKQQAEIAPLERSIIFSAFTAEETGLIGAQHFAQHPSVPTKDIVAFLNIDGMNVGQSVDYILRYGDGVSELEQYLDKAAKAQGRLVKADPRPQNGLMFRSDHFALAQQGVPGLLFMSLGDTDPDYIAHKYHQGADDYDPNWSLAGVSQDLELMAQMLTMLANSRDWPRWIESSDFKAKREQDGRN | not soluble
MGHHHHHHSHVNTLGPEGTSSEYAAKHFISNFTLLQGLNSKLSLHDTFESCIERTLQSPLEYTIVPHAYDGIKHFYMRPDLQLLQIFRCDTPMYGLAVRPDFEFRDDMLDTSVIVSHPSPINLIKYFTRKDVRFKLVNSTSQAARKVKEGLYDIALTNELARQKYGLTFVKTFKSIPMSWSLFGKGDV | soluble
GMLEFTKRSLMNKYNINERVLELYERALNDVEKEFKYYDEIREYNQLKVLKAFQEERISESHFTNSSGYGYNDIGRDSLDRVYANIFNTESAFVRPHFVNGTHAIGAALFGNLRPNDTMMSICGMPYDTLHDIIGMDDSKKVGSLREYGVKYKMVDLKDGKVDINTVKEELKKDDSIKLIHIQRSTGYGWRKSLRIAEIAEIIKSIREVNENVIVFVDNCYGEFVEEKEPTDVGADIIAGSLIKNIGGGIATTGGYIAGKEEYVTQATFRVTVPGIGGECGSTFGVMRSLYEGLFMAPHVTIEAVKGAVFCARIMELAGFDVLPKYNDKRTDIIQAIKFNDEKKLIDFIKGIQTASPVDSFVQCEAWDMPGYEDKVIMAAGTFVQGASIELSADAPIREPYIGYLQGGLTFDHAKLGVLIALSKLIM | soluble
MATNIGMMDSAYFVGRNEILTWINDRLHLNLSRVEEAASGAVQCQMLDMTFPGVVPMHKLVDLKISTDLLEKERDFYFSKLRDVEILCQTPELDDLPVNVSVEPIVVAVKKILYATDANESALEDAQEYLNQSLGVEDDEAEGNGEQLEEEKTQA | soluble
MKRDGHTHTEFCPHGTHDDVEEMILKAIELDFDEYSIVEHAPLSSEFMKNTAGNQEAVTTASMSMSDLPYYFKKMNQMKKKYASDLLIHIGFEVDYLIGYEDFTRDFLNEYGPQTDDGVLSLHFLEGQGGFRSIDFTAEDYNEGIVQFYGGFEQAQLVYLAGVKQSIEADLGAFKPRRIGHISLCQKFQQFFGADGRDFTAEVIAEFEAILALVKKRGYELDFNTAGLFKPLCKETYPPKEIVTLARALEIPFVYGSDSHGVADIGRGYNTYCQK | not soluble
MPVSGYLRIKGKRVGVEIFPFQAYHSQIKEVRQQVGNMAILPLRTQVRGPAPSANIESDIIDESLYYFKANVFFRTYEIKSDVDRVLIYVTLYITECLKKLNRSTSKAQGQQDMYSLAISKFDIPGDAGFPLNAVYAKPQTAQDADLMRQYLLQLRHETGNRVLEKVFNTEDGKPNKWWTCFAKKKFMEKSLAGPGQLEHHHHHH | not soluble
MGSDKIHHHHHHMKHYQTIIIGAGAAGIGFGSAMQRLGLTNFLIIEKGHIGESFLRWPRTTQFITPSFTTNGFGFPDLNAVIPDTSPAFSFEKEHLSGVEYARYLQLVAAHYNLPIQNETSVLSIDKRDSLFVIKTSKGDFSADYLIMATGEFQNPNTIDIKGADLGMHYGQVDNFHIKSDNPFIIIGGNESACDALTHLVYLGNQVELYTDTFGRKESNPDPSISLSPLTKERLKHIQDHKKEYYSISEGKKAIEIKQIGKQYQVTFDDGSTAESFHKPILSTGFLNTCHLIDGIALFEYDKNQLPIVTEDDESTIVNNCFLIGPSLRQRDTIFCYIYKFRQRFVPVINHIAQREGIILDEDTLEFFKENQMYLDNLACCDVNCDC | not soluble
MAGDPMAEAGNKTQNQSATEVNASPLQPAEYFIYHNLMNDKGLIKTDFSDQPSYLSESLGLWMEFLLSKNDAPHFQDQYQHLTDSFLMSNHLVTWKIQNGQASGTNALIDDMRIMLSLDQAAAKWGRSDYAQTARDIGTSLKTYNMNNGFFTDFYDSQAASKDVTLSYVMPDALAVLKKNGIIDEETEQRNANVLYSAPLKNGFLPKTYSSETKEYTYDSEINLIDQLYAAWHLPEGDEKASVLADWIKQEFQKNGKLYGRYSAYTKEPAVQYESPSVYALAVLFLTKQHENSSVIKAIYDRMNDFEIHDPVKSYYGGYMSGTQTHSFDNLLPLLAERKLFNENIIQLEHHHHHH | soluble
MSLTLKLFELVGADAGRPFSPFVWRTRMALAHKGLTAETIPWRFTDKAAIAPYGSEKVPVLLDGDKVVADSWAIANYLEDAYPDRPSLFGGDGGRAMARMLNWWGDLAIIGGIFPMIVADIAQRLDPEDAAYFRQSREARLKTTLEEAAASRDRAVQGFRKSLDPLRLTLKTQAFIGGAAPNYADYIVFGGFQWARVVSDFSLLQSDDPVYAWRERLLDAFGGLARATPGYPVEGHHHHHH | soluble
MSHVDDGFRSLTLKRFPQTDDVNPLLAWEAADEYLLQQLDETEIRGPVLILNDTFGALSCALAEHSPYSIGDSYLSELGTRENLRHNGIAESSVTFLDSTADYPQAPGVVLIKVPKTLALLEQQLRALRKVVTAQTRIIAGAKARDIHTSTLELFEKVLGPTTTTLAWKKARLINCTFSHPQLADAPQTLSWKLEDTGWTIHNHANVFSRTGLDIGARFFMQHLPENLDGEIVDLGCGNGVIGLSLLAKNPQANVVFVDESPMAVDSSRLNVETNLPEAFERCEFMINNALSGVEPFRFNAVFCNPPFHQKHALTDNIAWEMFHHARRCLKINGELYIVANRHLDYFHKLKKIFGNCATIATNNKFVILKAVKQGRRR | not soluble
MAHKKSNRQLIDACRQNFLSHLRLREWRDVHSQLLTVVREHGWRLNEAEATYEQIHLALLTGLLGNLGMKADDDPHYLGARGIKFYLWPGSALAKKAGRWVMAAELVETSRLYARCLAKIEPEWIEKVGAHLLKKSLSEPLEHHHHHH | soluble
MSLRRTCVIGAGPSGLAASRVLASRGIPFDCYEAGSGIGGLWRYGNDNGMSGVYASLHANISKESMSFSSLPMPDSYPVFPHHTQVLAYLESYAETFGLHGHIGLRTEVTSVRPVEGGGWEVTRRSRGGAEAETDRYTEVVVANGHHWDPRLPDPAVPGAGVFEGSAVHAHAYRSPEPYAGQRVLVVGMGNSGCEIAAEISRSAARTFLSARAVAHVFPKMLLGRPADHWAVSRAAVLPRFLKDPGMALLLRLARGAPALYGLPEPVRRPLAAHPSTSDELLVQLARGAVTAKPGIRSFGRDSVSFTDGSRETVDAVVYATGYSLSFPFLAPAVFAAPDGRTELYLRTVPPRLPGLFFMGLAQPAGAAFPLLEPQAEWIADLIEGEVLLPTPAEMTRSIARARERHDKVYAPSYRHGIEIDICAYRRALRRELREGHHHHHH | not soluble
LSITTPEQRIEKAKGETAYLPCKFTLSPEDQGPLDIEWLISPSDNQIVDQVIILYSGDKIYDNYYPDLKGRVHFTSNDVKSGDASINVTNLQLSDIGTYQCKVKKAPGVANKKFLLTVLVKPSGTRCFVDGSEEIGNDFKLKCEPKEGSLPLQFEWQKLSDSQTMPTPWLAEMTSPVISVKNASSEYSGTYSCTVQNRVGSDQCMLRLDVVPPS | soluble
MAHHHHHHMLLLLFRPVYQCTVALLCRSLPAYHPCLLSTDSPPPFFTVFCHLDDALHAMRRRSCSLRRLEVHTKRRAHAIMAELANPNPTVFEPTHDPLKGRTDAERAAEDDEDTEDPIDAWEVFEMIRRIRDPEHPNSLEQLKVVEPSLITVDWKKRHIRVLFTPTVPHCSLTTLIGLSIRLQLERSLPEYTKVDIYVTPGTHEQEAQVNKQLNDKERVAAALENRNLLNVVESCINEFDE | not soluble
MSLNNYKIFISAGESSGDIHGANLMRSLLKKNPNITFYGLGKERMNEAGLHCLCDMKTKSLMWLHALTELSAFLRMKKDCVRFFQHETPCAVILIDYCGFNFQLARAAKKLKIPVIYYITPQLWAHGPWRIKKLRKLVDFLIVIYPFEKSFYETSGLPVTYVGHPLFDELDRERRINNHLSMEEKQVGEYIVSLLPGSRKQEIIRLLPLLLRAAKQIKQTIPSIKILVSCTSEQYFSLIRLIVEASHLPAEIIVGCVRKIIQSSDICLAGSGTVTLQIAYYHTPMLIVYKISPFAYFIARPFLTTPYIGLVNILANKMIVPETLMCSNNYSRLANQAIELLRNNQKRHLCIENLRSLMDDIGKPGASERAAEEIFRFLRQETEGHHHHHH | not soluble
MGSDKIHHHHHHMTVAKGSIHGIIGENGAGKSTLMSILYGFYQADSGEIKIGGQSTVIKDSQAAISSGIGMVHQHFMLVENFTVLENVMLGAEGGALLAKGTAAARASLKQLETDYGLDVDPDAVVEELPVGRQQRVEILKALYRGADILILDEPTGVLTPAEADHLFKILRVLRDQGKTVILITHKLREIMAITDTVSVMRRGEIVATRKTVETSVEELAELMVGRRVLLRVDKQPAQPRDVLLSVRNLTVKDSRGVIMVDDVSFDVREGEIVGIAGVAGNGQSELLEAITGIRKPMSGEILIAGKLVTGYDPARLRDLGLAHIPEDRHHMGLVLPFEESQNAILGYHRDERYGKGMFLDPKAIRAAAEVEIAKYDIRPPNPRLKTANFSGGNQQKIVVAREIERDPNVLIIGQPTRGVDIGAIEFIHRRIVETRDKGKALLLVSVELDEIRSLSDRILVMFAGKVVGEKTADADEQTLGLMMAGIAA | not soluble
